The values that follow come from patent publication US20240383984A1 (Genentech, published 2024).

The target of test [1] is T1, human FcRH5 protein fragment (soluble) (human, UniProt Q96RD9 16-851).
T1 construct: whole entry named; also called soluble human FcRH5; Human FcRH5 (BIACORE analyte)
T1 sequence: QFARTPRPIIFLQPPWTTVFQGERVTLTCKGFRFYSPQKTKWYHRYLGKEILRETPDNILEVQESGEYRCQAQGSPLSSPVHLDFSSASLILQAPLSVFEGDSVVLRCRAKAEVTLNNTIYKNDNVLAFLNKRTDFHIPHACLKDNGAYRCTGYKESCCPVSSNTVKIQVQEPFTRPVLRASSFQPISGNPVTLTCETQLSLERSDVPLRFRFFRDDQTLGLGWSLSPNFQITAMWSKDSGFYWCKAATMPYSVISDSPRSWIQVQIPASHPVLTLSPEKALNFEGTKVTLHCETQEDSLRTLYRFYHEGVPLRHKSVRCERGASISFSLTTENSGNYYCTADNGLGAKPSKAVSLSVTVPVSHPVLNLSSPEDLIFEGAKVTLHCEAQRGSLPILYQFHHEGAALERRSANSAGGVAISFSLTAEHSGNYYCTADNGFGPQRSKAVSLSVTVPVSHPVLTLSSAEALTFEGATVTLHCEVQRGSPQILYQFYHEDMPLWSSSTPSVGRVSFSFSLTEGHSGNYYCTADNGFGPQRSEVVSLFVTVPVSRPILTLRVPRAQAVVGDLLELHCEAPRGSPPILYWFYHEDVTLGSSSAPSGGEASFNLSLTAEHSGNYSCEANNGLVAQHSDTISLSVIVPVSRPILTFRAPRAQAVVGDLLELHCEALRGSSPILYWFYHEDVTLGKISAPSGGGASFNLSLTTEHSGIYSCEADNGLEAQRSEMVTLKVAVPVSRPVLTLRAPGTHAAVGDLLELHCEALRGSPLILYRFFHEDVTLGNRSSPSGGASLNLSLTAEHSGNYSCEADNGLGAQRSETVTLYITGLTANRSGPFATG
Put plainly: SPR (BIACORE), IgG captured via anti-human IgG, FcRH5 protein fragment as analyte (100 and 500 nM). The protocol: (§1) Briefly, a human IgG capture surface was generated on a Series S CM5 chip using amine coupling and the human IgG capture kit (GE Life Sciences, Piscataway, NJ). Test antibodies were then captured on flow cells 2, 3, or 4, with flow cell 1 used as a reference. An FcRH5 protein fragment was used as the analyte, with a flow rate of […]. Between injections the capture surface was regenerated by a 30-second injection of 3M magnesium chloride or 10 mM glycine, pH 1.5. Interactions were assessed at 25° C. in 10 mM HEPES pH7.4, 150 mM NaCl, and 0.05% Tween 20 (HBSP). Reference data from the reference flow cell and from injection of buffer alone were subtracted prior to kinetic analysis. Kinetic information was calculated by fitting data to a 1:1 binding model. Reference subtraction and data fitting were performed using BIAevaluation software (GE Life Sciences, Piscataway, NJ).
(§2) For affinity screening of HVR-H2 Trp52 and Met64 variants (Table 7), antibodies were expressed by transient transfection of Expi293 cells and purified using tip columns that were custom packed with affinity resin MabSelect SuRe (Glygen Corp., Columbia, MD & GE Life Sciences, Piscataway, NJ). […] Binding of FcRH5 protein fragment to captured antibodies was monitored at 100 nM and 500 nM. Association and dissociation were monitored at a flow rate of 40 μl/min, for 180 s and 300 s, respectively.
In general terms: In SPR one partner is held on a chip, and binding of the other changes the refractive index at the surface.

Test [2] has as its target T1, human FcRH5 protein fragment (soluble). Put plainly: SPR, hIgG capture, screening. The protocol:
as §1, §2

Substitutions are numbered along the chain they refer to. Names may count otherwise.

B1: hu1G7.v1 heavy chain M64F with light chain of hu1G7.v1 (antibody, V domains shown)
VH: EVQLVESGPGLVKPSETLSLTCTVSGFSLTRFGVHWVRQPPGKGLEWLGVIWRGGSTDYNAAFFSRLTISKDNSKNQVSLKLSSVTAADTAVYYCSNHYYGSSDYALDNWGQGTLVTVSS
VL: DIQMTQSPSSLSASVGDRVTITCKASQDVSNIVVWFQQKPGKSPKLLIYSASYRYTGVPSRFSGSGSGTDFTLTISSLQPEDFATYYCQQHYSSPYTFGQGTKVEIK
notes: human IgG
With B1, the Kd (commonly the equilibrium constant for the complex coming apart) amounted to 25.9 nM in test [1] and 26 nM in test [2].

B2: hu1G7.v1 heavy chain M64V with light chain of hu1G7.v1.3 (antibody, V domains shown)
VH: B1 VH with F64V
VL: B1 VL with S30R, S43A, A51G, T56S, H91Q, S94P
notes: human IgG
As for B2, the Kd in test [1] and in test [2] was 2.5 nM in each case.

B3: hu1G7.v1 heavy chain W52F with light chain of hu1G7.v1.7 (antibody, V domains shown)
VH: B1 VH with W52F, F64M
VL: B1 VL with S30R, I32L, S43A, A51G, S52Y, S93Q, S94P
notes: human IgG
Take B3: the values for the Kd in test [1] and in test [2] were 76.6 nM and 77 nM, respectively.

B4: hu1G7.v1 heavy chain M64F with light chain of hu1G7.v1.7 (antibody, V domains shown)
VH: B1 VH
VL: B1 VL with S30R, I32L, S43A, A51G, S52Y, S93Q, S94P
notes: human IgG
With B4, the Kd in test [1] and in test [2] was 2.4 nM in each case.

B5: hu1G7.v1 heavy chain M64L with light chain of hu1G7.v1 (antibody, V domains shown)
VH: B1 VH with F64L
VL: B1 VL
notes: human IgG
With B5, the Kd in test [1] was found to be 26.5 nM; in test [2] it was 27 nM.

B6: hu1G7.v1 heavy chain M64I with light chain of hu1G7.v1.5 (antibody, V domains shown)
VH: B1 VH with F64I
VL: B1 VL with A51G, S52Y, H91Q, Y92F, S93Q, S94P
notes: human IgG
For B6, the Kd in test [1] and in test [2] was 2.7 nM throughout.

B7: hu1G7.v1 heavy chain M64L with light chain of hu1G7.v1.5 (antibody, V domains shown)
VH: B1 VH with F64L
VL: B1 VL with A51G, S52Y, H91Q, Y92F, S93Q, S94P
notes: human IgG
With B7, the Kd in test [1] and in test [2] was 2.3 nM in each case.

B8: hu1G7.v1 heavy chain M64I with light chain of hu1G7.v1 (antibody, V domains shown)
VH: B1 VH with F64I
VL: B1 VL
notes: human IgG
On to B8, for which the results for the dissociation constant (Kd) in test [1] and in test [2] were 29.8 nM and 30 nM, respectively.

B9: hu1G7.v1 heavy chain M64I with light chain of hu1G7.v1.7 (antibody, V domains shown)
VH: B1 VH with F64I
VL: B1 VL with S30R, I32L, S43A, A51G, S52Y, S93Q, S94P
notes: human IgG
As to B9, the Kd in test [1] and in test [2] was 2.6 nM in each case.

B10: hu1G7.v1 heavy chain M64F with light chain of hu1G7.v1.4 (antibody, V domains shown)
VH: B1 VH
VL: B1 VL with S30R, I32L, S43A, A51G, T56S, S94P
notes: human IgG
Regarding B10, the Kd in test [1] and in test [2] was 2.5 nM each time.

B11: hu1G7.v1 heavy chain M64L with light chain of hu1G7.v1.6 (antibody, V domains shown)
VH: B1 VH with F64L
VL: B1 VL with S43A, A51G, S52Y, T56S, H91Q, S93Q, S94P
notes: human IgG
Regarding B11, the Kd in test [1] and in test [2] was 2.6 nM in each case.

B12: hu1G7.v1 heavy chain W52F with light chain of hu1G7.v1.5 (antibody, V domains shown)
VH: B1 VH with W52F, F64M
VL: B1 VL with A51G, S52Y, H91Q, Y92F, S93Q, S94P
notes: human IgG
Consider B12, for which the Kd was 47.5 nM in test [1] and 48 nM in test [2].

B13: hu1G7.v1 heavy chain M64V with light chain of hu1G7.v1.6 (antibody, V domains shown)
VH: B1 VH with F64V
VL: B1 VL with S43A, A51G, S52Y, T56S, H91Q, S93Q, S94P
notes: human IgG
On to B13, for which the Kd in test [1] and in test [2] was 2.7 nM each time.

B14: hu1G7.v1 heavy chain M64F with light chain of hu1G7.v1.6 (antibody, V domains shown)
VH: B1 VH
VL: B1 VL with S43A, A51G, S52Y, T56S, H91Q, S93Q, S94P
notes: human IgG
For the molecule B14, the Kd in test [1] and in test [2] was 2.6 nM in each case.

B15: hu1G7.v1 heavy chain M64V with light chain of hu1G7.v1.7 (antibody, V domains shown)
VH: B1 VH with F64V
VL: B1 VL with S30R, I32L, S43A, A51G, S52Y, S93Q, S94P
notes: human IgG
Regarding B15, the Kd in test [1] and in test [2] was 2.5 nM in each case.

B16: hu1G7.v1 heavy chain M64I with light chain of hu1G7.v1.3 (antibody, V domains shown)
VH: B1 VH with F64I
VL: B1 VL with S30R, S43A, A51G, T56S, H91Q, S94P
notes: human IgG
Regarding B16, the Kd in test [1] and in test [2] was 2.1 nM in each case.

B17: hu1G7.v1 heavy chain M64L with light chain of hu1G7.v1.4 (antibody, V domains shown)
VH: B1 VH with F64L
VL: B1 VL with S30R, I32L, S43A, A51G, T56S, S94P
notes: human IgG
For B17, the Kd in test [1] and in test [2] was 2.5 nM each time.

B18: hu1G7.v1 heavy chain M64I with light chain of hu1G7.v1.6 (antibody, V domains shown)
VH: B1 VH with F64I
VL: B1 VL with S43A, A51G, S52Y, T56S, H91Q, S93Q, S94P
notes: human IgG
B18: the Kd in test [1] and in test [2] was 2.7 nM in each case.

B19: hu1G7.v1 heavy chain W52F with light chain of hu1G7.v1.4 (antibody, V domains shown)
VH: B1 VH with W52F, F64M
VL: B1 VL with S30R, I32L, S43A, A51G, T56S, S94P
notes: human IgG
B19: the equilibrium dissociation constant (Kd) worked out at 119 nM in test [1] and 120 nM in test [2].

B20: hu1G7.v1 heavy chain M64L with light chain of hu1G7.v1.3 (antibody, V domains shown)
VH: B1 VH with F64L
VL: B1 VL with S30R, S43A, A51G, T56S, H91Q, S94P
notes: human IgG
For the molecule B20, the Kd in test [1] and in test [2] was 2.4 nM each time.

B21: hu1G7.v1 heavy chain W52F with light chain of hu1G7.v1 (antibody, V domains shown)
VH: B1 VH with W52F, F64M
VL: B1 VL
notes: human IgG
For the molecule B21, the Kd in test [1] was 254 nM; in test [2] it was 250 nM.

B22: hu1G7.v1 heavy chain M64F with light chain of hu1G7.v1.3 (antibody, V domains shown)
VH: B1 VH
VL: B1 VL with S30R, S43A, A51G, T56S, H91Q, S94P
notes: human IgG
With B22, the Kd in test [1] and in test [2] was 2.2 nM in each case.

B23: hu1G7.v1 heavy chain W52H with light chain of hu1G7.v1 (antibody, V domains shown)
VH: B1 VH with W52H, F64M
VL: B1 VL
notes: human IgG
B23: the Kd in test [1] and in test [2] was 120 nM each time.

B24: hu1G7.v1 heavy chain M64V with light chain of hu1G7.v1.5 (antibody, V domains shown)
VH: B1 VH with F64V
VL: B1 VL with A51G, S52Y, H91Q, Y92F, S93Q, S94P
notes: human IgG
With B24, the Kd in test [1] and in test [2] was 2.5 nM in each case.

B25: hu1G7.v1 heavy chain W52F with light chain of hu1G7.v1.6 (antibody, V domains shown)
VH: B1 VH with W52F, F64M
VL: B1 VL with S43A, A51G, S52Y, T56S, H91Q, S93Q, S94P
notes: human IgG
For B25, the Kd is 81.4 nM in test [1] and 81 nM in test [2].

B26: hu1G7.v1 heavy chain M64F with light chain of hu1G7.v1.5 (antibody, V domains shown)
VH: B1 VH
VL: B1 VL with A51G, S52Y, H91Q, Y92F, S93Q, S94P
notes: human IgG
As for B26, the Kd in test [1] and in test [2] was 1.4 nM throughout.

B27: hu1G7.v1 heavy chain M64I with light chain of hu1G7.v1.4 (antibody, V domains shown)
VH: B1 VH with F64I
VL: B1 VL with S30R, I32L, S43A, A51G, T56S, S94P
notes: human IgG
Take B27: the Kd in test [1] and in test [2] was 2.5 nM in each case.

B28: hu1G7.v1 heavy chain W52F with light chain of hu1G7.v1.3 (antibody, V domains shown)
VH: B1 VH with W52F, F64M
VL: B1 VL with S30R, S43A, A51G, T56S, H91Q, S94P
notes: human IgG
For the molecule B28, the values for the Kd in test [1] and in test [2] were 177 nM and 180 nM, respectively.

B29: hu1G7.v1 heavy chain W52H with light chain of hu1G7.v1.3 (antibody, V domains shown)
VH: B1 VH with W52H, F64M
VL: B1 VL with S30R, S43A, A51G, T56S, H91Q, S94P
notes: human IgG
In the case of B29, the results for the Kd in test [1] and in test [2] were 65.5 nM and 66 nM, respectively.
